This series addresses T1, DNA polymerase kappa catalytic core (Polκ19-526) (human, UniProt Q9UBT6 19-526).
T1 sequence: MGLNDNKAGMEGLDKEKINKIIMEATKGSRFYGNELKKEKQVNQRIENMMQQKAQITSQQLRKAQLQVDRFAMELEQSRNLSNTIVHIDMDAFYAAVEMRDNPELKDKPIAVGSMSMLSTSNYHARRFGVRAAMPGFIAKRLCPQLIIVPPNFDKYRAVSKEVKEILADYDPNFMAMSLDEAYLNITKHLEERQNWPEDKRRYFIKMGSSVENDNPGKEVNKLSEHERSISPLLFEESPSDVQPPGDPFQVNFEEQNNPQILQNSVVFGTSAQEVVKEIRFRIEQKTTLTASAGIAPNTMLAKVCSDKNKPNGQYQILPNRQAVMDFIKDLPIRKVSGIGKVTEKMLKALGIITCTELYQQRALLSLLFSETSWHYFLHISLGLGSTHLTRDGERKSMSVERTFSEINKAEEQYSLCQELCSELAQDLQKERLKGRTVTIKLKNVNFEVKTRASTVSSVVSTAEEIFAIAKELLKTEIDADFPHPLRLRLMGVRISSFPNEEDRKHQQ
The series is described as follows: X-ray crystallography.

Results on 1 molecule are retold here after paper PMC3093752.

B1: 13-nt/18-nt primer/template with cis-syn T-T dimer (dsDNA)
DNA 1: TTCCTTGGTCCTTCCCCC
DNA 2: GGGGGAAGGACCA
modifications: cis-syn cyclobutane thymine dimer in template (T5-T6, position from pairing with primer); 3'-terminal dideoxyadenosine on primer
On to B1, for which the binding result is “binds”.
